Source: paper PMC3042988, “The activation mechanism of Irga6, an interferon-inducible GTPase contributing to mouse resistance against Toxoplasma gondii” (BMC Biology, 2011)

B1: Irga6 (IIGP1), wild type, recombinant, GST cleaved off [mouse] / itself (parent)
chain: MGQLFSSPKSDENNDLPSSFTGYFKKFNTGRKIISQEILNLIELRMRKGNIQLTNSAISDALKEIDSSVLNVAVTGETGSGKSSFINTLRGIGNEEEGAAKTGVVEVTMERHPYKHPNIPNVVFWDLPGIGSTNFPPNTYLEKMKFYEYDFFIIISATRFKKNDIDIAKAISMMKKEFYFVRTKVDSDITNEADGKPQTFDKEKVLQDIRLNCVNTFRENGIAEPPIFLLSNKNVCHYDFPVLMDKLISDLPIYKRHNFMVSLPNITDSVIEKKRQFLKQRIWLEGFAADLVNIIPSLTFLLDSDLETLKKSMKFYRTVFGVDETSLQRLARDWEIEVDQVEAMIKSPAVFKPTDEETIQERLSRYIQEFCLANGYLLPKNSFLKEIFYLKYYFLDMVTEDAKTLLKEICL

Variants of: B1
Experiment: light scattering (homo-oligomerisation)
Settings: with itself; 80 µM Irga6; 10 mM GTP; 37°C; peak of the time course, at about 15 min; read off a plot

response [a. u.] | Variant
8.2 | MGQLFSSPKSDENNDLPSSFTGYFKKFNTGRKIISQEILNLIELRMRKGNIQLTNSAISDALKKIDSSVLNVAVTGETGSGKSSFINTLRGIGNEEEGAAKTGVVEVTMERHPYKHPNIPNVVFWDLPGIGSTNFPPNTYLEKMKFYEYDFFIIISATRFKKNDIDIAKAISMMKKEFYFVRTKVDSDITNEADGKPQTFDKEKVLQDIRLNCVNTFRENGIAEPPIFLLSNKNVCHYDFPVLMDKLISDLPIYKRHNFMVSLPNITDSVIEKKRQFLKQRIWLEGFAADLVNIIPSLTFLLDSDLETLKKSMKFYRTVFGVDETSLQRLARDWEIEVDQVEAMIKSPAVFKPTDEETIQERLSRYIQEFCLANGYLLPKNSFLKEIFYLKYYFLDMVTEDAKTLLKEICL [chain 1 E64K]

Same assay, conditions: with itself; 80 µM Irga6; 10 mM GTP; 37°C; peak of the time course, at about 10 min; read off a plot

response [a. u.] | Variant
9 | MGQLFSSPKSDENNDLPSSFTGYFKKFNTGRKIISQEILNLIELRMRKGNIQLTNSAISDALKEIDSSVLNVAVTGETGSGKSSFINTLRGIGNEERGAAKTGVVEVTMERHPYKHPNIPNVVFWDLPGIGSTNFPPNTYLEKMKFYEYDFFIIISATRFKKNDIDIAKAISMMKKEFYFVRTKVDSDITNEADGKPQTFDKEKVLQDIRLNCVNTFRENGIAEPPIFLLSNKNVCHYDFPVLMDKLISDLPIYKRHNFMVSLPNITDSVIEKKRQFLKQRIWLEGFAADLVNIIPSLTFLLDSDLETLKKSMKFYRTVFGVDETSLQRLARDWEIEVDQVEAMIKSPAVFKPTDEETIQERLSRYIQEFCLANGYLLPKNSFLKEIFYLKYYFLDMVTEDAKTLLKEICL [chain 1 E97R]
